Laboratory results reported in patent publication US20130177979A1, “METHODS AND COMPOSITIONS FOR CELL PERMEABLE STAT3 INHIBITOR” (University of Central Florida Research Foundation, Inc., priority 2010, published 2013).

Assays:
[1] = molecular target: GpYVKPQ (pTyr peptide of Stat5); test: SPR (SensiQ); His-tagged Stat3 SH2 domain immobilised on a HisCap sensor chip, GpYVKPQ passed over as analyte; sensorgram shown at 100 µM
[2] = molecular target: GpYLPQTV (IL-6R/gp130-derived pTyr peptide); test: SPR (SensiQ), His-tagged protein immobilised on HisCap chip, pTyr peptide as analyte
[3] = molecular target: PpYLKTK (Stat3-derived pTyr705 peptide); test: as above
[4] = molecular target: PEpYINQS (pY1068 peptide of EGFR); test: as above
[5] = molecular target: PVpYHNQP (pY1086 peptide of EGFR); test: as above
[6] = molecular target: GpYVKPQ (pTyr peptide of Stat5); test: as above
[7] = molecular target: GpYIKTE (Stat1 pY701 peptide); test: as above
[8] = molecular target: 5-carboxyfluorescein-GpYLPQTV-NH2; test: Fluorescence polarization saturation curve; 10 nM 5-carboxyfluorescein-GpYLPQTV-NH2 probe with increasing purified His-Stat3

| Substance | Kd [1] [µM] | Kd [2] [µM] | Kd [3] [µM] | Kd [4] [µM] | Kd [5] [µM] | Kd [6] [µM] | Kd [7] [µM] | EC50 (read off the curve) [8] [µM] |
| --- | --- | --- | --- | --- | --- | --- | --- | --- |
| His-tagged Stat3 SH2 domain | 5140 | 0.03 | 1.6 | 0.4 | 2.6 | 5200 | 6.6 | – |
| His-tagged Stat3 (full-length Stat3) | – | 0.02 | – | – | – | – | – | 0.1 |
